{"source": "paper PMC2111050", "about": "“Human RECQ1 Is a DNA Damage Responsive Protein Required for Genotoxic Stress Resistance and Suppression of Sister Chromatid Exchanges” (PLoS ONE, 2007)", "molecular_target": "T1, Recombinant human RECQ1 helicase (human, UniProt P46063 1-649)", "T1 construct": "RECQ1 (RECQL) helicase, human; the gene encodes a 649 amino acid protein of 73 kDa; also called RECQL", "T1 sequence (looked up)": "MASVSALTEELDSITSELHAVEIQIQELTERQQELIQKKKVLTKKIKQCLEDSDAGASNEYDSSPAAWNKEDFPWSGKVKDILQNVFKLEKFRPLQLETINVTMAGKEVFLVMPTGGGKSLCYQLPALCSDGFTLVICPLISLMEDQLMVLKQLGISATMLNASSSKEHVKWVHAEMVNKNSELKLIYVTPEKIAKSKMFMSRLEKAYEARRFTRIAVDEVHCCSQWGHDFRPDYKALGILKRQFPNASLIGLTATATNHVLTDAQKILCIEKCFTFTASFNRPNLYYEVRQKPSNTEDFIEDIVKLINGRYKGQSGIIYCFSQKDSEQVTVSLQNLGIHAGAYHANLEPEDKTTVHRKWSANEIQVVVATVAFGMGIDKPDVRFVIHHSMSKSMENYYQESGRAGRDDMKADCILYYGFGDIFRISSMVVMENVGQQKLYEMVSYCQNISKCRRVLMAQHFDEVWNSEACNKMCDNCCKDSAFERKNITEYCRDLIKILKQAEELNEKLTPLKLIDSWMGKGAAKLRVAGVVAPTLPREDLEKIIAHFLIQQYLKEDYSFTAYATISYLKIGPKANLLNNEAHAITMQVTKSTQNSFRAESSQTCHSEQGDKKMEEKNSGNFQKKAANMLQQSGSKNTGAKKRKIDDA", "assay": "ELISA; RECQ1 (14 nM; 1 ng/µl, 50 µl) or BSA coated on wells in carbonate buffer pH 9.6; Rad51 0-76 nM in PBS, 0.5% Tween-20, 3% BSA, 1 h at 30°C; detected with rabbit anti-Rad51; Scatchard analysis, apparent Kd; similar signal with DNaseI (100 U/ml) or EtBr (50 µg/ml)", "settings": "both partners purified"}
{"binder": "Purified recombinant human Rad51 (natural protein, UniProt Q06609 1-339, looked up, Rad51 strand exchange protein, human; source: provided by Dr. Ian Hickson (Cancer Research UK Laboratories); purified recombinant) MAMQMQLEANADTSVEEESFGPQPISRLEQCGINANDVKKLEEAGFHTVEAVAYAPKKELINIKGISEAKADKILAEAAKLVPMGFTTATEFHQRRSEIIQITTGSKELDKLLQGGIETGSITEMFGEFRTGKTQICHTLAVTCQLPIDRGGGEGKAMYIDTEGTFRPERLLAVAERYGLSGSDVLDNVAYARAFNTDHQTQLLYQASAMMVESRYALLIVDSATALYRTDYSGRGELSARQMHLARFLRMLLRLADEFGVAVVITNQVVAQVDGAAMFAADPKKPIGGNIIAHASTTRLYLRKGRGETRICKIYDSPCLPEAEAMFAINADGVGDAKD", "values": [{"measurement": "Kd", "value": "11.9 ± 2.1", "unit": "nM"}]}
